Changes are numbered by the printed parent chain. In names and notes the source's numbering stands.

We go through 17 molecules from US20240400708A1.

Sequences and labels used below:
B1: feline IgG1a mutant ID No. 343: S252Y, S428M, S434F, D399M (antibody, part only; not given: Variable domains, not shown: another chain or arm of the molecule; small tags and cut ends)
constant: ASTTAPSVFPLAPSCGTTSGATVALACLVLGYFPEPVTVSWNSGALTSGVHTFPAVLQASGLYSLSSMVTVPSSRWLSDTFTCNVAHPPSNTKVDKTVRKTDHPPGPKPCDCPKCPPPEMLGGPSIFIFPPKPKDTLYISRTPEVTCLVVDLGPDDSDVQITWFVDNTQVYTAKTSPREEQFNSTYRVVSVLPILHQDWLKGKEFKCKVNSKSLPSPIERTISKAKGQPHEPQVYVLPPAQEELSRNKVSVTCLIKSFHPPDIAVEWEITGQPEPENNYRTTPPQLMSDGTYFVYSKLSVDRSHWQRGNTYTCSVMHEALHFHHTQKSLTQSPGK
B2: feline IgG1a mutant ID No. 352: S252Y, S428M, S434F, Q311Y (antibody, part only; not given: Variable domains, not shown: another chain or arm of the molecule)
constant: B1 constant with Q197Y, M287D
B3: feline IgG1a mutant ID No. 363: S252Y, S434R, D399T (antibody, part only; not given: Variable domains, not shown: another chain or arm of the molecule)
constant: B1 constant with M287T, M316S, F322R
B4: feline IgG1a mutant ID No. 351: S252Y, S428M, S434F, Q311W (antibody, part only; not given: Variable domains, not shown: another chain or arm of the molecule)
constant: B1 constant with Q197W, M287D
B5: feline IgG1a mutant ID No. 346: S252Y, S428M, S434F, G402R (antibody, part only; not given: Variable domains, not shown: another chain or arm of the molecule)
constant: B1 constant with M287D, G290R
B6: feline IgG1a mutant ID No. 361: S252Y, S434R, D312P (antibody, part only; not given: Variable domains, not shown: another chain or arm of the molecule)
constant: B1 constant with D198P, M287D, M316S, F322R
B7: feline IgG1a mutant ID No. 354: S252Y, S428M, S434F, T250Q (antibody, part only; not given: variable domains and light chain, not shown: another chain or arm of the molecule)
constant: B1 constant with T136Q, M287D
B8: feline IgG1a mutant ID No. 349: S252Y, S428M, S434F, Q311K (antibody, part only; not given: variable domains and light chain, not shown: another chain or arm of the molecule)
constant: B1 constant with Q197K, M287D
B9: feline IgG1a mutant ID No. 356: S252Y, S428M, S434F, T403R (antibody, part only; not given: Variable domains, not shown: another chain or arm of the molecule)
constant: B1 constant with M287D, T291R
B10: feline IgG1a mutant ID No. 360: S252Y, S434R, D312H (antibody, part only; not given: Variable domains, not shown: another chain or arm of the molecule)
constant: B1 constant with D198H, M287D, M316S, F322R
B11: feline IgG1a mutant ID No. 347: S252Y, S428M, S434F, L314K (antibody, part only; not given: variable domains and light chain, not shown: another chain or arm of the molecule)
constant: B1 constant with L200K, M287D
B12: feline IgG1a mutant ID No. 359: S252Y, S434R, D312A (antibody, part only; not given: variable domains and light chain, not shown: another chain or arm of the molecule)
constant: B1 constant with D198A, M287D, M316S, F322R
B13: feline IgG1a mutant ID No. 345: S252Y, S428M, S434F, E430I (antibody, part only; not given: Variable domains, not shown: another chain or arm of the molecule)
constant: B1 constant with M287D, E318I
B14: feline IgG1a mutant ID No. 362: S252Y, S434R, D399M (antibody, part only; not given: Variable domains, not shown: another chain or arm of the molecule)
constant: B1 constant with M316S, F322R
B15: feline IgG1a mutant ID No. 344: S252Y, S428M, S434F, D401R (antibody, part only; not given: Variable domains, not shown: another chain or arm of the molecule)
constant: B1 constant with M287D, D289R
B16: feline IgG1a mutant ID No. 355: S252Y, S428M, S434F, T256M (antibody, part only; not given: variable domains and light chain, not shown: another chain or arm of the molecule)
constant: B1 constant with T142M, M287D
B17: feline IgG1a mutant ID No. 348: S252Y, S428M, S434F, Q311H (antibody, part only; not given: Variable domains, not shown: another chain or arm of the molecule)
constant: B1 constant with Q197H, M287D

For the first experiment, the target named is feline FcRn complex (FcRn-α subunit and β-microglobulin) (feline). As to the kind of experiment: SPR (Biacore), FcRn on SA chip, pH 6.
B1: the dissociation constant (Kd) (commonly the concentration at which binding is half-saturated) is 0.041 nM.

In the case of B2, the Kd is 0.0271 nM.

Take B3: the Kd was determined as 0.923 nM.

As to B4, the Kd came to 0.011 nM.

As to B5, the Kd stood at 0.0404 nM.

B6 returned a Kd of 0.188 nM.

B7 showed an equilibrium dissociation constant (Kd) of 0.0192 nM.

B8 showed a Kd of 0.0192 nM.

In turn, B9 had a Kd of 0.0249 nM.

In turn, B10 gave a Kd of 1.09 nM.

The molecule B11 had a Kd of 0.0567 nM.

In turn, B12 had an equilibrium dissociation constant (Kd) of 0.626 nM.

In turn, B13 returned an equilibrium dissociation constant (Kd) of 0.0227 nM.

Consider B14, for which the equilibrium dissociation constant (Kd) was 1.14 nM.

As for B15, the Kd stood at 0.0128 nM.

In turn, B16 registered a Kd of 0.0964 nM.

As to B17, the Kd came out at 0.00949 nM.

For the next experiment the target is unchanged. The experiment can be described thus: SPR (Biacore), FcRn on SA chip, pH 7.4.
The molecule B1 had a dissociation constant (Kd) of 10.9 nM.

B2: the equilibrium dissociation constant (Kd) came to 6.48 nM.

With B3, the dissociation constant (Kd) came out at 38.9 nM.

For the molecule B4, the dissociation constant Kd was 3.35 nM.

In turn, B5 returned an equilibrium dissociation constant (Kd) of 9.95 nM.

As for B6, the Kd is 20.7 nM.

Take B7: the Kd worked out at 4.46 nM.

With B8, the Kd was found to be 4.78 nM.

For B9, the Kd is 9.98 nM.

In turn, B10 yielded a Kd of 43.1 nM.

In the case of B11, the Kd worked out at 10.5 nM.

B12 yielded a Kd of 25.3 nM.

Regarding B13, the dissociation constant (Kd) amounted to 11.5 nM.

In turn, B14 returned a Kd of 43.6 nM.

As for B15, the Kd amounted to 11 nM.

As for B16, the dissociation constant (Kd) was 15.7 nM.

In turn, B17 had a dissociation constant Kd of 10.8 nM.
